Experimental data from publication PMC9506730.

Biological target: T1, human Kir2.1 channel, wild type (human), P63252
T1 chain: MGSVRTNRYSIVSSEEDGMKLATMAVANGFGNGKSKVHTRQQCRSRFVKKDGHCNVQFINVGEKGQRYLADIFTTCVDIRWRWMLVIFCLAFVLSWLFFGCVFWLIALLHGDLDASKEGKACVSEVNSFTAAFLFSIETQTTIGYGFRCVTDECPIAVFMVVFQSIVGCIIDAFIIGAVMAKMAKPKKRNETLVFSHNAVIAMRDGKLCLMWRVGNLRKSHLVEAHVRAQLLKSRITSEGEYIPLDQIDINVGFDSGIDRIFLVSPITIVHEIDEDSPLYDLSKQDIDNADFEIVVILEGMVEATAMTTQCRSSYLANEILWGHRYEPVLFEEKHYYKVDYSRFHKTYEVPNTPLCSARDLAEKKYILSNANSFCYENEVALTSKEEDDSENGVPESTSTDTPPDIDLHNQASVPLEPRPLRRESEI
Assay: SEC
Settings: remark: other sources report otherwise

stoichiometry N: 4
B1: human Kir2.1 channel, wild type, P63252 1-427 (natural protein)
chain: T1 chain
